Assay results from paper doi:10.1101/2025.06.02.657420, “Structure of the energy converting methyltransferase (Mtr) of Methanosarcina mazei in complex with an oxygen-stress responsive small protein” (bioRxiv, 2025).

T1: MtrE carrying a C-terminal TwinStrep-tag (Methanosarcina mazei, UniProt P80651 1-304)
T1 construct: MtrE of the Mtr complex, Methanosarcina mazei DSM 3647, locus MM_1547; the mtrE gene was amplified from chromosomal DNA with primers from the start codon to the last codon before the tag; The plasmid was put into wild-type M. mazei, so untagged chromosomal MtrE may stand in the trimeric complex beside the tagged copy; also called MtrE-TS; TS-tagged MtrE; source: M. mazei DSM 3647, from shuttle …
T1 sequence (looked up): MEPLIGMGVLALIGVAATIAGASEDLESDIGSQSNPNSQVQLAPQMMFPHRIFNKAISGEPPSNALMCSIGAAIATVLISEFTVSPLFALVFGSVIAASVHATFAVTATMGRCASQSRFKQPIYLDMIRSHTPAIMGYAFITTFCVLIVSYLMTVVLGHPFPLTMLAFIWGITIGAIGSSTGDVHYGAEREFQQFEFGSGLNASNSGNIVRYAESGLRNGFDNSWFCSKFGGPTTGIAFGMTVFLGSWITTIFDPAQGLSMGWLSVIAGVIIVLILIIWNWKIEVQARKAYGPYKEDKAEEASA


Key:
[1] = molecular target: T1, MtrE carrying a C-terminal TwinStrep-tag; assay: cryo-EM structure; single-particle cryo-EM of the native Mtr complex purified from methanol-grown M. mazei through MtrE-TwinStrep (Strep-Tactin), LMNG-solubilised, 6 mg/mL with 1 mM CHAPSO; buffer 50 mM MOPS/NaOH pH 7.0, 10 mM MgCl2, 150 mM NaCl; C1 consensus map with local refinements of MtrA and MtrH; conditions: both partners purified
[2] = molecular target: the molecule itself; assay: as above

binding result [1]	Binder	binding result [2]
binds	MtrB, subunit B of the Mtr complex (natural protein, UniProt P80655 1-108, looked up, MtrB of the Mtr complex, Methanosarcina mazei DSM 3647 (Goe1); single-spanning stalk subunit; Three copies stand in the whole complex; also called chain B; helix B; source: endogenous, M. mazei membranes, LMNG-solubilised, co-purified with MtrE-TwinStrep on Strep-Tactin) MSIVRIAPEINLVMDTESGTVTQERKDSIQYSMEPVFERVDKLDAIADDLVNSLSPSKPLLNTWPGRENTSYIAGIYSNSFYGIIVGLAFSGLLALIIYITRLMGGVV	
binds	MtrF, subunit F of the Mtr complex (natural protein, UniProt P80654 1-72, looked up, MtrF of the Mtr complex, Methanosarcina mazei DSM 3647 (Goe1); single-spanning stalk subunit; Three copies stand in the whole complex; also called chain F; helix F; source: endogenous, M. mazei membranes, LMNG-solubilised, co-purified with MtrE-TwinStrep on Strep-Tactin) MAEEHEKGVPMVLAPQMGAIDATVESIRYRAQLIARNQKLDSGVAATGIIGFAAGFLFSLLMVIVLPVAVGL	
	MtrG, subunit G of the Mtr complex (natural protein, UniProt P80656 1-72, looked up, MtrG of the Mtr complex, Methanosarcina mazei DSM 3647 (Goe1); single-spanning stalk subunit; Three copies stand in the whole complex and form a three-helix bundle in the membrane plane; also called chain G; source: endogenous, M. mazei membranes, LMNG-solubilised, co-purified with MtrE-TwinStrep on Strep-Tactin) MDGKAPAAFVEPGEFNEVMKRLDQIDEKVEFVNSEVAQRIGKKVGRDIGILYGGVIGLLLFLIYVQISSMFM	binds
